Reference: patent publication US20060134087A1, “ITI-D1 Kunitz domain mutants as hNE inhibitors” (Dyax Corp., priority 1988, published 2006)
Entries after “also recorded” stand apart in the source; their conditions may differ. Read-outs that look alike come from different tables or passages of the source.

Columns and labels:
hNE [1] = target: T1, hNE (Homo sapiens, UniProt P08246); test: pH stability, residual hNE inhibitory activity; format: physicochemical; conditions: 37° C., 18 hours; for pH stability: pH 1 to pH 10, 1 μM; for Percent Residual hNE Inhibitory Activity: 1 μM protein
T1 sequence (P08246 30-267): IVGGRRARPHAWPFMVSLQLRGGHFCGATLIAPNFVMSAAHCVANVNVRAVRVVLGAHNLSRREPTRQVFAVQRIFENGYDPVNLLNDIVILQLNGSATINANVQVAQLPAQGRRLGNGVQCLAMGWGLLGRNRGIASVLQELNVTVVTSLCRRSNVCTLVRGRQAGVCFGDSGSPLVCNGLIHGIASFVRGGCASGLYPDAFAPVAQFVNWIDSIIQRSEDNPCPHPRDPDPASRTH
Description: The stability of the proteins to exposure to pH conditions in the range of pH 1 to pH 10 was assessed by maintaining the inhibitors in buffers of defined pH at 37° C. for 18 hours and determining the residual hNE inhibitory activity in the standard hNE-inhibition assay. Proteins were incubated at a concentration of 1 μM. The buffers shown in Table 4 were formulated as described (STOL90) and used in the pH ranges indicated: […]
Proteins were incubated at 37° C. for 18 hours in buffers of defined pH (see text). In all cases protein concentrations were 1 μM. At the end of the incubation period, aliquots of the reactions were diluted and residual hNE-inhibition activity determined.

hNE [2] = target: T1, hNE; test: Kinetic on-rate of inhibitors reacting with hNE (progressive inhibition); format: biochemical; conditions: for kon: [hNE] = 8.47 × 10^−10 molar; for koff: calculated from koff = KD × kon
Description: The kinetic on-rates for the inhibitors reacting with hNE (kon) were determined from measurements of progressive inhibition of substrate hydrolytic activity by hNE following addition of inhibitor. For these experiments, a known concentration of inhibitor was added to a solution of hNE (0.847 nM) and substrate (25 μM) in 2 ml of reaction buffer in a plastic fluorescence cuvette. The change in fluorescence was recorded continuously following addition of the inhibitor. […] The enzymatic rate at selected times following addition of the inhibitor was determined from the slope of the tangent to the fluorescence time course at that time.
The kinetic constant kon for EPI-HNE-2 reacting with hNE was determined as follows. EPI-HNE-2 at 1.3 nM was added to buffer containing 0.867 nM hNE (I:E=1.5:1) at time 0. Measured percent residual activity was recorded as a function of time after addition of inhibitor. A least-squares fit program was used to obtain the value of kon=4.0×10^6 M^−1s^−1.
The kinetic off rate, koff, is calculated from the measured values of Ki and kon as: […] The values from such measurements are included in Table 30. The EPI-HNE proteins are small, high affinity, fast acting inhibitors of hNE. B. Specificity.

hNE [3] = target: T1, hNE; test: Resistance to oxidative inactivation by Chloramine-T, residual hNE-inhibition activity; format: physicochemical; conditions: for Percent Residual hNE-Inhibitory Activity: 20 minutes at RT
Description: At the end of the incubation period, the oxidation reactions were quenched by adding methionine to a final concentration of 4 mM. After a further 10 minute incubation, the quenched reactions were diluted and assayed for residual inhibitor activity in our standard hNE-inhibition assay.
Inhibitors were incubated in the presence of Chloramine-T at the molar ratios indicated for 20 minutes at RT. Oxidation reactions were quenched by adding methionine to a final concentration of 4 mM. Residual hNE-inhibition activity remaining in the quenched reactions is shown as a percentage of the activity observed with no added oxidant.

hNE [4] = target: T1, hNE; test: Temperature stability, residual inhibitory activity for hNE; format: physicochemical; design: Residual hNE Inhibitory Activity: unit not given here; conditions: for Residual hNE Inhibitory Activity: 18 hours, pH 7.0, 1 μM protein; for temperature below which full inhibitory activity is maintained: thirty minutes, 1 μM, phosphate buffer pH=7
Description: The stability of EPI-HNE proteins to temperatures in the range 0° C. to 95° C. was assessed by incubating the inhibitors for thirty minutes at various temperatures and determining residual inhibitory activity for hNE. In these experiments, protein concentrations were 1 μM in phosphate buffer at pH=7. As is shown in Table 40, the four inhibitors are quite temperature stable.
Proteins were incubated at the stated temperature for 18 hours in buffer at pH 7.0. In all cases protein concentrations were 1 μM. At the end of the incubation period, aliquots of the reactions were diluted and residual hNE-inhibition activity determined.

[5] = target: T2, Elastase (porcine pancreas) (Sus scrofa, UniProt P00772); conditions: BPTI P1 derivatives, cited from earlier work
T2 construct: host or cells: porcine pancreas

[6] = target: T3, Chymotrypsin (bovine pancreas) (Bos taurus, UniProt P00766); conditions: BPTI P1 derivatives; read-out: Dissociation constant (symbol); cited from earlier work
T3 construct: host or cells: bovine pancreas

[7] = target: T4, Elastase (human leukocytes) (Homo sapiens, UniProt P08246); conditions: BPTI P1 derivatives; read-out: Dissociation constant; cited from earlier work
T4 construct: host or cells: human leukocytes
T4 sequence (P08246 30-267): T1 sequence (P08246 30-267)

[8] = target: T5, Trypsin (bovine pancreas) (Bos taurus, UniProt P00760); conditions: BPTI P1 derivatives; read-out: Dissociation constant (symbol); cited from earlier work
T5 construct: host or cells: bovine pancreas
T5 sequence (P00760 24-246): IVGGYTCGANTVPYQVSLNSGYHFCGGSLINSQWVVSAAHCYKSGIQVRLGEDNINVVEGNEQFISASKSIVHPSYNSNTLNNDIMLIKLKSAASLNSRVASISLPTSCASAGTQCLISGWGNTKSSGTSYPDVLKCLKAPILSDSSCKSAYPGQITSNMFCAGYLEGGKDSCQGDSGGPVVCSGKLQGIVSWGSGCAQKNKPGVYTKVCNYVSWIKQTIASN

hCG = target: T6, hCG (Homo sapiens, UniProt P08311); conditions: cited from earlier work
T6 sequence (P08311 21-255): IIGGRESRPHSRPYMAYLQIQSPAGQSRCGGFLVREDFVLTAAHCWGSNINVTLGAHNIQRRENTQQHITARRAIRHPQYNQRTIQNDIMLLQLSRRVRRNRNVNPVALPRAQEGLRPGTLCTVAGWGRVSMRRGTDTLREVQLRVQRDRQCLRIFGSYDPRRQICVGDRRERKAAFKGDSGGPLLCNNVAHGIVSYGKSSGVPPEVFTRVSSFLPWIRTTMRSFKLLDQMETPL

[9] = read-out: Dissociation constant

T2 sequence (P00772 27-266): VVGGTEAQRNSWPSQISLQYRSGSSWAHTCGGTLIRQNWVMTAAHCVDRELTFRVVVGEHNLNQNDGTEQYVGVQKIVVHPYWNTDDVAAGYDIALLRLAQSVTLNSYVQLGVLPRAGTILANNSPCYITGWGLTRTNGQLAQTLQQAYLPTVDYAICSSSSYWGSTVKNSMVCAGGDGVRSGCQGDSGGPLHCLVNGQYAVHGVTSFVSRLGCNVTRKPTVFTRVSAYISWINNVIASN

Row | kon (hNE [2]) | koff (hNE [2]) | Substance | pH stability (hNE [1]) | Percent Residual hNE Inhibitory Activity (hNE [1]; Incubation pH 1.0) | Percent Residual hNE Inhibitory Activity (hNE [1]; Incubation pH 2.0) | Percent Residual hNE Inhibitory Activity (hNE [1]; Incubation pH 3.0) | Percent Residual hNE Inhibitory Activity (hNE [1]; Incubation pH 4.0) | Percent Residual hNE Inhibitory Activity (hNE [1]; Incubation pH 6.0) | Percent Residual hNE Inhibitory Activity (hNE [1]; Incubation pH 7.0) | Percent Residual hNE Inhibitory Activity (hNE [1]; Incubation pH 8.0) | Percent Residual hNE Inhibitory Activity (hNE [1]; Incubation pH 9.4) | Percent Residual hNE Inhibitory Activity (hNE [1]; Incubation pH 10.0) | Percent Residual hNE-Inhibitory Activity (hNE [3]; Molar Ratio CHL-T:Inhibitor 0) | Residual hNE Inhibitory Activity (hNE [4]; Temperature 0 ° C.) | Residual hNE Inhibitory Activity (hNE [4]; Temperature 23 ° C.) | Residual hNE Inhibitory Activity (hNE [4]; Temperature 37 ° C.) | Residual hNE Inhibitory Activity (hNE [4]; Temperature 55 ° C.) | Residual hNE Inhibitory Activity (hNE [4]; Temperature 85 ° C.) | Residual hNE Inhibitory Activity (hNE [4]; Temperature 95 ° C.) | temperature below which full inhibitory activity is maintained (hNE [4]) | also measured
1 | 10.6 10^6/M/s | 49. 10^−6/s | EPI-HNE-4: EPI-HNE-3 with substitution A3E; SEQ ID NO 027 (EACNLPIVRGPCIAFFPRWAFDAVKGKCVLFPYGGCQGNGNKFYSEKECREYCGVP; Epi-HNE-4) | stable when incubated at low pH, but showed some loss of activity at high pH; also recorded: retains almost full activity to pH 8.5 | 98% | 100% | 96% | 94% | 99% | 93% | 83% | 40% | 34% | 100% | 100 | 103 | 98 | 98 | 63 | 48 | below 65 °C | Percent Residual hNE Inhibitory Activity (hNE [1]; Incubation pH 5.5): 109%; Percent Residual hNE Inhibitory Activity (hNE [1]; Incubation pH 6.5): 100%; Percent Residual hNE Inhibitory Activity (hNE [1]; Incubation pH 7.5): 109%; Percent Residual hNE Inhibitory Activity (hNE [1]; Incubation pH 8.5): 86%; Percent Residual hNE-Inhibitory Activity (hNE [3]; Molar Ratio CHL-T:Inhibitor 1.0): 100%; Percent Residual hNE-Inhibitory Activity (hNE [3]; Molar Ratio CHL-T:Inhibitor 3.0): 100%; Percent Residual hNE-Inhibitory Activity (hNE [3]; Molar Ratio CHL-T:Inhibitor 5.0): 100%; Percent Residual hNE-Inhibitory Activity (hNE [3]; Molar Ratio CHL-T:Inhibitor 10.): 104%; Percent Residual hNE-Inhibitory Activity (hNE [3]; Molar Ratio CHL-T:Inhibitor 30.): 100%; Percent Residual hNE-Inhibitory Activity (hNE [3]; Molar Ratio CHL-T:Inhibitor 50.): 100%; Percent Residual hNE-Inhibitory Activity (hNE [3]; Molar Ratio CHL-T:Inhibitor .50): 100%; hNE-inhibition activity after exposure to Chloramine-T (hNE [3]; all molar ratios tested (up to 50:1 for EPI-HNE-3 and EPI-HNE-4)): retain essentially complete hNE-inhibition activity; Residual hNE Inhibitory Activity (hNE [4]; Temperature 69 ° C.): 82
2 |  |  | alanine |  |  |  |  |  |  |  |  |  |  |  |  |  |  |  |  |  |  | Kd [5, 9]: 0.028 µM; Kd [6]: > 3.5 µM; Kd [7]: 0.0025 µM; Kd [8]: ≥ 3.5 µM
3 |  |  | Bovine pancreatic trypsin inhibitor [BPTI] |  |  |  |  |  |  |  |  |  |  |  |  |  |  |  |  |  |  | Kd ([5]; read-out: Dissociation constant (symbol)): > 3.5 µM; inhibition of Cathepsin-G (hCG; SWAI88, ODOM90): lacks; binding of hCG (hCG): does not significantly bind hCG
4 |  |  | valine |  |  |  |  |  |  |  |  |  |  |  |  |  |  |  |  |  |  | Kd [5, 9]: 0.057 µM; Kd [6]: > 3.5 µM; Kd [7]: 0.00011 µM; Kd [8]: > 3.5 µM
5 | 3.7 10^6/M/s | 7.4 10^−6/s | EPI-HNE-1: BPTI-derived Kunitz domain, SEQ ID NO 007; K15I, R17F, I18F, I19P, R39M, A40G, K41N, R42G | stable at all pH values tested | 102% | 100% | 100% | 98% | 100% | 93% | 96% | 100% | 98% | 100% | 97 | 100 | 100 | 99 | 106 | 64 | below 90 °C | Percent Residual hNE Inhibitory Activity (hNE [1]; Incubation pH 2.6): 101%; Percent Residual hNE Inhibitory Activity (hNE [1]; Incubation pH 5.0): 100%; Percent Residual hNE-Inhibitory Activity (hNE [3]; Molar Ratio CHL-T:Inhibitor 1.4): 98%; Percent Residual hNE-Inhibitory Activity (hNE [3]; Molar Ratio CHL-T:Inhibitor 1.9): 102%; Percent Residual hNE-Inhibitory Activity (hNE [3]; Molar Ratio CHL-T:Inhibitor 3.8): 94%; Percent Residual hNE-Inhibitory Activity (hNE [3]; Molar Ratio CHL-T:Inhibitor 9.5): 95%; Percent Residual hNE-Inhibitory Activity (hNE [3]; Molar Ratio CHL-T:Inhibitor 19.): 92%; Percent Residual hNE-Inhibitory Activity (hNE [3]; Molar Ratio CHL-T:Inhibitor .48): 102%; Percent Residual hNE-Inhibitory Activity (hNE [3]; Molar Ratio CHL-T:Inhibitor .95): 100%; Residual hNE Inhibitory Activity (hNE [4]; Temperature 45 ° C.): 103; Residual hNE Inhibitory Activity (hNE [4]; Temperature 65 ° C.): 94; Residual hNE Inhibitory Activity (hNE [4]; Temperature 75 ° C.): 100
